Patent US7998940B2, “Aptamers to von Willebrand factor and their use as thrombotic disease therapeutics” (Archemix Corp., priority 2004, dated 2011)
Oligonucleotides are written 5' to 3', each unit as a sugar letter and its base; * is a phosphorothioate linkage, no mark a phosphodiester; rarer units and linkages stand in square brackets, end groups in braces. Plain capitals give the bases only. d = 2'-deoxy (DNA); r = 2'-OH (RNA); f = 2'-fluoro

How the values were obtained:
[1] = molecular target: human vWF A1 domain (SEQ ID NO 5) (Homo sapiens, UniProt P04275, T1381A); experiment: 3-point dot blot screen, human vWF A1 domain; type: binding; settings: 100 nM human vWF A1 domain
Excerpt: (§1) When a significant positive ratio of binding of RNA in the presence of human or rabbit vWF A1 domain versus in the absence of protein was seen, the pools were cloned using the TOPO TA cloning kit (Invitrogen, Cat. #45-0641, Carlsbad, Calif.) according to the manufacturer's instructions. Round 9 and 12 pool templates were cloned and sequenced (125 total sequences), producing 48 unique clones. All unique clones were transcribed, desalted, 5-^32P end-labeled, and assayed in a 3-point dot blot screen (no protein target control, 100 nM human vWF A1 domain (SEQ ID NO 5, FIG. 3), or 100 nM rabbit vWF A1 domain (SEQ ID NO 6, FIG. 3). The data is presented in the third and fourth columns of Table 4 below as the ratio of the fraction of the aptamer bound to the nitrocellulose in the presence of the target protein to the fraction of aptamer bound in the absence of the target protein.
(§2) When a significant positive ratio of binding of RNA in the presence of human or rabbit vWF A1 domain (SEQ ID NOS 4 and 6, respectively) versus in the absence of protein was seen, the pools were cloned using the TOPO TA cloning kit (Invitrogen Cat. #45-0641, Carlsbad, Calif.) according to the manufacturer's instructions. Round 9 and 12 pool templates were cloned and sequenced (185 total sequences), producing 78 unique clones within 3 sequence families. All unique clones were transcribed, desalted, 5-^32P end-labeled, and assayed in a 3-point dot blot screen (no protein target control, 100 nM human vWF A1 domain (SEQ ID NO 5), or 100 nM rabbit vWF A1 domain (SEQ ID NO 6). The data are presented in the third and fourth columns of Table 9 below as the ratio of the fraction of the aptamer bound to the nitrocellulose in the presence of the target protein to the fraction of aptamer bound in the absence of the target protein. Of the three sequence families, members of Family #1 and #2 and two individual, non-family aptamers, bound to both human vWF domain A1 (SEQ ID NO 5) and rabbit vWF domain A1 (SEQ ID NO 6).
(§3) All unique clones were assayed in a 3-point dot blot screen (no protein target control, 100 nM human vWF A1 domain (SEQ ID NO 5), or 100 nM rabbit vWF A1 domain (SEQ ID NO 6). The data are presented in the third and fourth columns of Table 14 below as the ratio of the fraction of the aptamer bound to the nitrocellulose in the presence of the target protein to the fraction of aptamer bound in the absence of the target protein.

[2] = system: rabbit vWF A1 domain (SEQ ID NO 6); experiment: 3-point dot blot screen, rabbit vWF A1 domain; type: binding; settings: 100 nM rabbit vWF A1 domain, ratio of fraction bound with target to without
Excerpt: as §1, §2, §3
When a significant positive ratio of binding of DNA in the presence of human or rabbit vWF A1 domain versus in the absence of protein was seen, the pools were cloned using the TOPO TA cloning kit (Invitrogen Cat. #45-0641, Carlsbad, Calif.) according to the manufacturer's instructions. Round 7 and 11 pool templates were cloned and sequenced (218 total sequences), producing 146 unique clones within 12 sequence families of which sequences from six families show vWF target binding activity. All unique clones were assayed twice in a 3-point dot blot screen (no protein target control, 20 nM full length human vWF (Calbiochem Cat. #681300, La Jolla, Calif.), or 20 nM rabbit vWF A1 domain. The data is presented in the third and fourth columns of Table 17 below as the ratio of the fraction of the aptamer bound to the nitrocellulose in the presence of the target protein to the fraction of aptamer bound in the absence of the target protein.

[3] = rRfY aptamers, ratio of fraction bound with target to fraction bound without target
[4] = rRdY aptamers, ratio of fraction bound with target to without
[5] = DNA SELEX 1 aptamers, ratio of fraction bound with target to without

Chain of human vWF A1 domain (SEQ ID NO 5) (P04275 with tags, fused parts or gaps T1381A): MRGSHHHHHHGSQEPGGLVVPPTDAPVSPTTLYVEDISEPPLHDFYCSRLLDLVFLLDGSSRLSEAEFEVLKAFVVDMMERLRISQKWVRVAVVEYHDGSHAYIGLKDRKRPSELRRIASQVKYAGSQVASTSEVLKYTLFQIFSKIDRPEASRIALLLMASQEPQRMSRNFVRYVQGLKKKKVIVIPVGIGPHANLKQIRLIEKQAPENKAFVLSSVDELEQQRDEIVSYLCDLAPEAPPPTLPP
Chain of rabbit vWF A1 domain (SEQ ID NO 6) (as listed by the source): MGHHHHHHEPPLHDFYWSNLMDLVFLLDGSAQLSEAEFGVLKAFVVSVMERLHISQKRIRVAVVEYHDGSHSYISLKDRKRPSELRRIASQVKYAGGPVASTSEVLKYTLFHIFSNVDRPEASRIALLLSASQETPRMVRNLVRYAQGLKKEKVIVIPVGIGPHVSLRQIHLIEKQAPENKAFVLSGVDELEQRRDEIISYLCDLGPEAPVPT

| Molecule | Screen- Human/No Protein [1, 3] | Screen- Rabbit/No Protein ([2]; rRfY aptamers) | Screen- Human/No Protein [1, 5] | Screen- Rabbit/No Protein ([2]; DNA SELEX 1 aptamers) | also measured |
| --- | --- | --- | --- | --- | --- |
| AMX201.D4: rRfY aptamer clone (nucleic acid) rGrGrArGfCrGfCrAfCfUfCrArGfCfCrAfCfUrGrGrGrGfCfUrGrAfUfCfUfCrGfCrAfCrGrAfUrArGfUfUfCrGfUrGfUfCrArArGrGrAfUrGfCrGfUfUfUfUfCrGrAfCfCfUfCfUfCfUrGfCfUrArGfC | 2.23 | 2.46 |  |  |  |
| AMX205.G9: rRdY aptamer clone (nucleic acid) rGrGrArGdCrGdCrAdCdTdCrArGdCdCrAdCrArAdCdTrGrGdTdTrGdTdCrGrGdTrGrAdTrGrGdCrAdTdTrArAdCrGdCrGrGrAdCdCrArGrGdCrAdTrGdTdTdTdCrGrAdCdCdTdCdTdCdTrGdCdTrArGdC |  |  |  |  | Screen- Human/No Protein [1, 4]: 1.30; Screen- Rabbit/No Protein ([2]; rRdY aptamers): 1.73 |
| AMX201.D10: rRfY aptamer clone (nucleic acid) rGrGrArGfCrGfCrAfCfUfCrArGfCfCrAfCrAfCfUrGrArGrGfCfUrGrGrAfUrAfUfCfUrAfCrGrArGrArGrGrArArGfUrGfCfUrGfCfUfUrGrGrAfUfUfUfCrGrAfCfCfUfCfUfCfUrGfCfUrArGfC | 1.59 | 1.52 |  |  |  |
| AMX201.A8: rRfY aptamer clone (nucleic acid) rGrGrArGfCrGfCrAfCfUfCrArGfCfCrAfCrGfCfUrGfUrAfCrAfCfUrGrAfUrGfUfUrGfUrArAfCrAfUrGfUrAfCfCfCfCfCfUrGrGfCfUrGfUfUfUfCrGrAfCfCfUfCfUfCfUrGfCfUrArGfC | 1.82 | 1.51 |  |  |  |
| AMX205.A7: rRdY aptamer clone (nucleic acid) rGrGrArGdCrGdCrAdCdTdCrArGdCdCrAdCdTdCrArArGrGrGrGrGdTdCrGdCrGdTrGrGrGrGrAdCrGrArArGrGrGdTdTrGdCrArGdTrGdTrGdTdCrGdTdTdTdCrGrAdCdCdTdCdTdCdTrGdCdTrArGdC |  |  |  |  | Screen- Human/No Protein [1, 4]: 1.24; Screen- Rabbit/No Protein ([2]; rRdY aptamers): 1.37 |
| AMX203.A6: rRdY aptamer clone (nucleic acid) rGrGrArGdCrGdCrAdCdTdCrArGdCdCrAdCdCrAdCrGrGrGrGrAdCrGrGrGdTrArGrGrGdCrGrGrGdCrGrArGrGdTrGrGdTrGrGdCrAdTdTrArGdCrGdTdTdTdCrGrAdCdCdTdCdTdCdTrGdCdTrArGdC |  |  |  |  | Screen- Human/No Protein [1, 4]: 1.16; Screen- Rabbit/No Protein ([2]; rRdY aptamers): 1.16 |
| AMX201.H11: rRfY aptamer clone (nucleic acid) rGrGrArGfCrGfCrAfCfUfCrArGfCfCrAfCfCfCfUrGfUfCrGfUfCfUfUfUfUrGrGfUrArGfUfCrArGfCfCrArArArArGfCfUrArGfUfUrGrGfUfUrGfUfUfUfCrGrAfCfCfUfCfUfCfUrGfCfUrArGfC | 1.75 | 1.40 |  |  |  |
| AMX201.H4: rRfY aptamer clone (nucleic acid) rGrGrArGfCrGfCrAfCfUfCrArGfCfCrAfCfUrArAfCrGrGfUfUrGrAfUfCfUfCrArGrGrAfCfUrArAfUrArGfUfCrArAfCrArArGrGrAfUrGfCrGfUfUfUfCrGrAfCfCfUfCfUfCfUrGfCfUrArGfC | 1.79 | 1.86 |  |  |  |
| AMX200.G11: DNA SELEX 1 aptamer clone (nucleic acid, DNA, backbone not given here, DNA SELEX 1 aptamer clone) DNA: CTACCTACGATCTGACTAGCGGAACGAGAATGCTGATGGATTGCTCAGGTCTGCTGGCTGCTTACTCTCATGTAGTTCC |  |  | 1.73 | 1.28 |  |
| AMX200.B1: DNA SELEX 1 aptamer clone (nucleic acid, DNA, backbone not given here, DNA SELEX 1 aptamer clone) DNA: CTACCTACGATCTGACTAGCGGAATGAGAATGCTGATGGATTGCCCAGGTCTGCTGGCTGCTTACTCTCATGTAGTTCC |  |  | 4.01 | 3.01 |  |
| AMX200.D11: DNA SELEX 1 aptamer clone (nucleic acid, DNA, backbone not given here, DNA SELEX 1 aptamer clone) DNA: CTACCTACGATCTGACTAGCGGAATAAGAATGCTGATGGATTGCTCAGGTCTGCTGGCTGCTTACTCTCATGTAGTTCC |  |  | 3.34 | 2.04 |  |
| AMX200.B8: DNA SELEX 1 aptamer clone (nucleic acid, DNA, backbone not given here, DNA SELEX 1 aptamer clone) DNA: CTACCTACGATCTGACTAGCGGAATGAGAATGTTGGTGGATTGCTCAGGTCTGCTGGCTGCTTACTCTCATGTAGTTCC |  |  | 4.13 | 3.13 |  |
| AMX200.B9: DNA SELEX 1 aptamer clone (nucleic acid, DNA, backbone not given here, DNA SELEX 1 aptamer clone) DNA: CTACCTACGATCTGACTAGCGGAATGAGAATGCTGATGGATTGCTCAGGTCTGCTGACTGCTTACTCTCATGTAGTTCC |  |  | 2.54 | 2.06 |  |
| AMX200.D8: DNA SELEX 1 aptamer clone (nucleic acid, DNA, backbone not given here, DNA SELEX 1 aptamer clone) DNA: CTACCTACGATCTGACTAGCGGAATGAGAATGTTGATGGATTGCTCAGGTCTGCTGGCTGCTTACTCTCATGTAGTTCC |  |  | 2.86 | 1.61 |  |
| AMX200.D1: DNA SELEX 1 aptamer clone (nucleic acid, DNA, backbone not given here, DNA SELEX 1 aptamer clone) DNA: CTACCTACGATCTGACTAGCGGAATGAGAGTGCTGATGGATTGCTCAGGTCTACTGGCTGCTTACTCTCATGTAGTTCC |  |  | 1.26 | 1.06 |  |
| AMX200.F9: DNA SELEX 1 aptamer clone (nucleic acid, DNA, backbone not given here, DNA SELEX 1 aptamer clone) DNA: CTACCTACGATCTGACTAGCGGAATGAGGATGCTGATGGATTGGTCAGGTCTGCTGGCTGCTTACTCTCATGTAGTTCC |  |  | 0.97 | 0.99 |  |
| AMX200.A7: DNA SELEX 1 aptamer clone (nucleic acid, DNA, backbone not given here, DNA SELEX 1 aptamer clone) DNA: CTACCTACGATCTGACTAGCGGAATGAGAATGCTGATGGATTGTTCAGGTCTGCTGGCTGCTTACTCTCATGTAGTTCC |  |  | 0.97 | 0.96 |  |
| AMX201.D3: rRfY aptamer clone (nucleic acid) rGrGrArGfCrGfCrAfCfUfCrArGfCfCrAfCrGfCfCfCrAfCrGfUfCrArArAfUfUrAfUrArGfUfCfUrAfCfUfUfUrGrAfUrGfUrGfCfCfCrGfUrGrGfUfUfUfCrGrAfCfCfUfCfUfCfUrGfCfUrArGfC | 1.76 | 1.52 |  |  |  |
| AMX203.F9: rRdY aptamer clone (nucleic acid) rGrGrArGdCrGdCrAdCdTdCrArGdCdCrAdCdTrGrArArGrGrGdTrArArGrGrAdCrGrArGrGrArGrGrGdTrAdTrAdCrArGdTrGdTrGdCrGdCrGdTrGdTrAdTdTdTdCrGrAdCdCdTdCdTdCdTrGdCdTrArGdC |  |  |  |  | Screen- Human/No Protein [1, 4]: 1.45; Screen- Rabbit/No Protein ([2]; rRdY aptamers): 1.29 |
